This note sets out measurements from US20210128616A1.

In the experiment the target is CD19 (UniProt P15391). Description: cell-based or functional assay.
UniProt P15391, sequence (P15391 20-291 limits assumed): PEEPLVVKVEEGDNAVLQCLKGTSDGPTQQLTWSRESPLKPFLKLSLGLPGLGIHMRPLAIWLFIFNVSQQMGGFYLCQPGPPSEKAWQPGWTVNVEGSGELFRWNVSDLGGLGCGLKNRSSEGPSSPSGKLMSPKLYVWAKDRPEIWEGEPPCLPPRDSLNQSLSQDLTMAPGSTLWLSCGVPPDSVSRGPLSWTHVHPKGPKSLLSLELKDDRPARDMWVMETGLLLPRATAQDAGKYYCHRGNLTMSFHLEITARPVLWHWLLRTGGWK

Consider “anti-CD19 chimeric antigen receptor (CAR) with an anti-CD19 scFv derived from murine antibody FMC63 (VL-linker-VH orientation), an immunoglobulin-derived spacer, a CD28-derived transmembrane domain, a 4-1BB costimulatory region and a CD3-zeta intracellular signaling domain”, for which the relative standard deviation among lots of a parameter indicative of TNFα production by CD4+ CAR+ T cells after stimulation with CD19 stood at 37% and the relative standard deviation among lots of a parameter indicative of TNFα production by CD8+ CAR+ T cells after stimulation with CD19 turned out to be 51%.
